Source: US20160274109A1

Biological target: Rap1B (Rap1B portion of the EPAC2-GFP-RAP1B sensor) (Homo sapiens (Human)) (UniProt P61224)
Experiment: cell-based or functional assay

Rap1B (Rap1B portion of the EPAC2-GFP-RAP1B sensor) (Homo sapiens (Human)), sequence (P61224 other isoform, or with tags, fused parts or gaps limits assumed): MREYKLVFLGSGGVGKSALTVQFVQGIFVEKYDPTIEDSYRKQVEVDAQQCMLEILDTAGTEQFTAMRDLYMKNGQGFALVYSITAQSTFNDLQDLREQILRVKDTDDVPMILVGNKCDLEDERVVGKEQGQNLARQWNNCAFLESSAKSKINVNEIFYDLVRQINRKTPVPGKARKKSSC

Substance	Relative Change in Fluorescence in Response to Isoproternol (EPAC2gfpRAP1B sensor) [%]	change in fluorescence of the tethered Epac2-cpEGFP-Rap1B sensor in response to drug (isoproterenol), HEK 293 cells [%]
Epac2 (Epac2 portion of the EPAC2-GFP-RAP1B sensor) (from UniProt Q8WZA2 1-1011)	26	
Epac2 (Epac2 portion of the EPAC2-GFP-RAP1B sensor) (from UniProt Q8WZA2 1-1011) (enzyme)		25
